Like-named read-outs stand apart in the source and are kept apart here.

The record followed here is patent EP4818205A1 (Beijing Wisdomab Biotechnology Co., Ltd, dated 2026).

The target in assay [1] is T1, recombinant protein His-fib-hTL1A (human).
T1 chain: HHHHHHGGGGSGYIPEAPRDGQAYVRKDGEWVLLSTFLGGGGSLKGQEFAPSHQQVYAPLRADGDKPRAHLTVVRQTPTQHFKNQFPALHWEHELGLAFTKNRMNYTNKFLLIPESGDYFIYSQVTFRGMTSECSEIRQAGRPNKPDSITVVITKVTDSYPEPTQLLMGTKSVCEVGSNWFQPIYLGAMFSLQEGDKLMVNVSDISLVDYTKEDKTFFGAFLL
The assay is described as follows: cell-based or functional assay.

The target in assay [2] is T1, recombinant protein His-fib-hTL1A. The experiment in a line: cell-based or functional assay.
The target of assay [3] is T2, recombinant protein His-fib-mTL1A (mouse).
T2 construct: also called mouse TL1A
T2 chain: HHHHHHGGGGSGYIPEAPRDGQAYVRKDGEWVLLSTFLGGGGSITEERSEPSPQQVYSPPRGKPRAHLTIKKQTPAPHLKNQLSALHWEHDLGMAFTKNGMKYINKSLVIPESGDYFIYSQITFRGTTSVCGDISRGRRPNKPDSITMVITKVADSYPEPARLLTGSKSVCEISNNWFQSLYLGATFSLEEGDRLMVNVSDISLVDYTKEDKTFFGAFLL
The experiment in a line: SPR, Biacore T200; antibody captured by anti-human IgG (Fc), TL1A as analyte; 1:1 model.

The target in assay [4] is T3, recombinant protein His-fib-mfTL1A (Macaca fascicularis).
T3 construct: also called monkey TL1A; Macaca fascicularis TL1A
T3 chain: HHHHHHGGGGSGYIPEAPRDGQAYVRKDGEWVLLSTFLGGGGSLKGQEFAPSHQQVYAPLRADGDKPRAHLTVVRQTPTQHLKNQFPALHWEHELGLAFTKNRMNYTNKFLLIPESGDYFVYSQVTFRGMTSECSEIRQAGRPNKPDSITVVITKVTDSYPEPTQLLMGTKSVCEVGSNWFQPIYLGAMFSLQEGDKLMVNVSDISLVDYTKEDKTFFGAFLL
Described as above.

The target in assay [5] is T1, recombinant protein His-fib-hTL1A. The assay is described as follows: cell-based or functional assay.
Assay [6] has the same target. The assay is described as follows: cell-based or functional assay.
Assay [7] concerns the target T2, recombinant protein His-fib-mTL1A. The experiment in a line: SPR, Biacore T200; antibody captured by anti-human IgG (Fc), TL1A as analyte; 1:1 model.
The target in assay [8] is T4, recombinant protein His-fib-rTL1A (rat).
T4 construct: also called rat TL1A
T4 chain: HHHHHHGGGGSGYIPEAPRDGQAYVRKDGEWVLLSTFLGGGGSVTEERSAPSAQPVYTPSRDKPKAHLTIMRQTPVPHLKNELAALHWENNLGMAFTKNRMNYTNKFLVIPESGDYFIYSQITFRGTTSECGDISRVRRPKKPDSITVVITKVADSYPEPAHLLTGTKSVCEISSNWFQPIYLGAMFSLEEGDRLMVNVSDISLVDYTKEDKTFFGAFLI
The assay is described as above.

The target of assay [9] is T3, recombinant protein His-fib-mfTL1A. The assay is described as above.
The target in assay [10] is T1, recombinant protein His-fib-hTL1A. The experiment in a line: cell-based or functional assay.
Assay [11] shares this target. The experiment in a line: SPR, Biacore T200; antibody captured by anti-human IgG (Fc), TL1A as analyte; 1:1 model.
Assay [12] has the same target. The description is as above.
Assay [13] concerns the target T2, recombinant protein His-fib-mTL1A. The experiment in a line: SPR, Biacore T200; antibody captured by anti-human IgG (Fc), TL1A as analyte.
The target of assay [14] is T4, recombinant protein His-fib-rTL1A. The assay is described as above.

B1: anti-TL1A monoclonal antibody RVT-3101 (antibody, V domains shown)
VH: QVQLVQSGAEVKKPGASVKVSCKASGYDFTYYGISWVRQAPGQGLEWMGWISTYNGNTHYARMLQGRVTMTTDTSTRTAYMELRSLRSDDTAVYYCARENYYGSGAYRGGMDVWGQGTTVTVSS
VL: EIVLTQSPATLSLSPGERATLSCRASQSVSSYLAWYQQKPGQAPRLLIYDASNRATGIPARFSGSGSGTDFTLTISSLEPEDFAVYYCQQRSNWPWTFGQGTKVEIK
For the molecule B1, the entries for the “IC50 of inhibition of NF-kB activation in TL1A-stimulated 293T-hDR3-NF-kB-RE-luci cells” value (“IC50 of inhibition of NF-kB activation” for short) in assay [1] and in assay [6] were 1.28 nM and 1.08 nM, respectively. The “IC50 of inhibition of caspase activation in TL1A-stimulated TF-1 cells” value in assay [2] was found to be 3.46 nM. Moreover, the dissociation constant Kd in assay [3] amounted to 0.0482 nM; in assay [4] it was 0.0275 nM; in assay [7] it was 0.0775 nM; in assay [8], 0.434 nM; in assay [9], 0.05 nM; in [11], 0.144 nM. For the same molecule, the Kd in assay [12] worked out at 0.154 nM. Further, the koff was determined as 4.36e-05 s⁻¹ in assay [3]; 4.51e-05 s⁻¹ in assay [4]; 5.92e-05 s⁻¹ in [7]; 0.000424 s⁻¹ in [8]; 6.7e-05 s⁻¹ in assay [9]; 0.000102 s⁻¹ in assay [11]. For the same molecule, the koff in assay [12] stood at 0.0001 s⁻¹. Moreover, the kon came to 904000 M⁻¹ s⁻¹ in assay [3]; 1.64e+06 M⁻¹ s⁻¹ in [4]; 764000 M⁻¹ s⁻¹ in [7]; 978000 M⁻¹ s⁻¹ in assay [8]; 1.34e+06 M⁻¹ s⁻¹ in assay [9]; 706000 M⁻¹ s⁻¹ in assay [11]. The kon in [12] is 652000 M⁻¹ s⁻¹. Further, the “IC50 of inhibition of interferon-gamma secretion by TL1A-stimulated PBMCs” value in assay [5] stood at 13.6 nM. Besides, in [10], the “IC50 of inhibition of caspase-3/7 activation in TL1A-stimulated TF-1 cells” value was 3.13 nM.

B2: mouse anti-TL1A monoclonal antibody S4D3 (antibody, V domains shown)
VH: QVQLKESGSDLATPGASVKLSCKVSGYTFTKYDINWVRQRPEQGLEWIGWIFPGDGRTDYNEKFKGKATLTIDTSSSTAYMQLSRLTSEDSAVYFCARYGYALDYWGQGTSVTVSS
VL: DVVMTQTPLSLPVSLGDQASISCRSSQNIVHSNGDTYLEWFLQKPGQSPKLLIYKVSNRFSGVPDRFSGSGSGTDFTLKISRVEAEDLGVYYCFQGSHFPYTFGGGTKLEMKR
For B2, the “IC50 of inhibition of NF-kB activation” value in [1] is 1.13 nM. Moreover, in [4], the Kd is 0.0489 nM, the koff came to 6.31e-05 s⁻¹ and the on-rate constant (kon) is 1.29e+06 M⁻¹ s⁻¹. In addition, the binding result in assay [13] is given as “no binding”. Further, the “IC50 of inhibition of caspase-3/7 activation in TL1A-stimulated TF-1 cells” value in [10] came to 3.05 nM. For the same molecule, in [12], the Kd is 0.247 nM, the koff came to 0.000131 s⁻¹ and the kon came out at 532000 M⁻¹ s⁻¹.

B3: anti-TL1A monoclonal antibody PRA023 (antibody, V domains shown)
VH: QVQLVQSGAEVKKPGASVKVSCKASGFDIQDTYMHWVKQRPGQGLEWMGRIDPASGHTKYDPKFQVRVTITRDTSTSTVYLELSSLRSEDTAVYYCARSGGLPDVWGQGTTVTVSS
VL: EIVLTQSPGTLSLSPGERATLSCRASSSVSYMYWYQQKPGQAPRPLIYATSNLASGIPDRFSGSGSGTDFTLTISRLEPEDFAVYYCQQWEGNPRTFGGGTKLEIK
As to B3, the “IC50 of inhibition of caspase activation in TL1A-stimulated TF-1 cells” value in [2] came out at 6.52 nM. Also, the binding result in assay [14] and in assay [13] was “no binding” in each case. Also, the Kd in assay [4] was determined as 0.0802 nM; in assay [9] it was 0.0802 nM; in assay [11], 0.355 nM; in assay [12], 0.355 nM. Besides, the koff in assay [4] is 9.01e-05 s⁻¹; in assay [9] it was 9.01e-05 s⁻¹; in assay [11] it was 0.000169 s⁻¹; in [12] it was 0.000169 s⁻¹. For the same molecule, the kon in assay [4] was 1.12e+06 M⁻¹ s⁻¹; in assay [9], 1.12e+06 M⁻¹ s⁻¹; in [11], 476000 M⁻¹ s⁻¹; in assay [12], 476000 M⁻¹ s⁻¹. Besides, the “IC50 of inhibition of interferon-gamma secretion by TL1A-stimulated PBMCs” value in assay [5] stood at 6.54 nM. In assay [6], the “IC50 of inhibition of NF-kB activation” value amounted to 2.81 nM.

B4: mouse anti-TL1A monoclonal antibody S9H9 (antibody, V domains shown)
VH: QVQLKQSGAELVRPGTSVKISCKASGYAFTNYWLGWIKQRPGHGLEWIGDIHPGRGNIFYNEKFKGKATLTADKSSSTAYMQLSSLTSEDSAVYFCAEGYDTFDYWGQGTTLTVSA
VL: DIVMTQSHKFMSTSVGDRVSITCKASQDVSTAVAWYQQKPGQSPKLLIYSASYRYTGVPDRFTGSGSGTDFTFTISSVQAEDLAVYYCQQHYSTPWTFGGGTKLEMKR
Consider B4, for which the “IC50 of inhibition of NF-kB activation” value in assay [1] was found to be 1.28 nM. Besides, in [3], the Kd was found to be 37.2 nM, the koff came to 0.00255 s⁻¹ and the kon came out at 68600 M⁻¹ s⁻¹. In addition, in [4], the Kd was 0.0603 nM, the off-rate constant (koff) came to 0.000175 s⁻¹ and the kon is 2.9e+06 M⁻¹ s⁻¹. The “IC50 of inhibition of caspase-3/7 activation in TL1A-stimulated TF-1 cells” value in assay [10] stood at 2.69 nM. Besides, in assay [12], the Kd worked out at 0.0374 nM, the koff was 0.000501 s⁻¹ and the kon was 1.34e+07 M⁻¹ s⁻¹.

B5: mouse anti-TL1A monoclonal antibody S7B11 (antibody, V domains shown)
VH: QVKLQQSGGELVRPGTSVKISCKASGYAFTNYWLGWIKQRPGHGLEWIGDIHPGRGNIYYNEKFKGKATLTADKSSSTAYMQLSSLTSEDSAVYFCAEGYDTFDYWGQGTTLTVSS
VL: DIVMTQSPSYLAASPGETITINCRASKSISKYLAWYQEKPGKTNKLLIYSGSTLQSGIPSRFSGSGSGTDFTLTISSLEPEDFAMYYCQQHNEYPYTFGGGTKLEIKR
In the case of B5, in assay [1], the “IC50 of inhibition of NF-kB activation” value came to 1.35 nM. Besides, in [3], the Kd came to 53.5 nM, the koff was determined as 0.00366 s⁻¹ and the on-rate (kon) is 68300 M⁻¹ s⁻¹. In [4], the Kd was 0.052 nM, the koff was found to be 6.93e-05 s⁻¹ and the kon was found to be 1.32e+06 M⁻¹ s⁻¹. The “IC50 of inhibition of caspase-3/7 activation in TL1A-stimulated TF-1 cells” value in [10] was found to be 2.69 nM. In addition, in [12], the Kd worked out at 0.234 nM, the koff came out at 0.00011 s⁻¹ and the kon came to 470000 M⁻¹ s⁻¹.
